Assays:
[1] = biological target: T1, VEGF 1 ZFP (NLS-ZFP-VP16-FLAG) (synthetic construct (SP1 backbone)); assay: cell_activity; 293 cells, integrated reporter; 6 in Table 8
T1 chain: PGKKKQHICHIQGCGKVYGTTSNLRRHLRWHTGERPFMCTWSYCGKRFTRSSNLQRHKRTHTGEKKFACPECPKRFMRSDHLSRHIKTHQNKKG

[2] = biological target: T1, VEGF 1 ZFP (NLS-ZFP-VP16-FLAG); assay: ChIP anti-FLAG, 293 cells, GAPDH-normalized; 8.3 in Table 7
Description: (§1) Immunoprecipitated DNA, obtained as described in Example 11, was used as template in a real-time amplification assay. Three DNA targets were assayed: the integrated reporter gene containing four tandem VEGF 3a/1 binding sites (pGL-VFR), the endogenous VEGF gene, and the endogenous glyceraldehyde phosphate dehydrogenase (GAPDH) gene (which was used as a control for nonspecific precipitation).
(§2) The values obtained for the endogenous VEGF gene (VEGF) and for the integrated reporter containing VEGF target sites (pGL-VFR), normalized to the values obtained for GAPDH, were then normalized to the values obtained for cells transfected with NVF, a construct that lacks a zinc finger DNA-binding domain, to obtain a value for the degree to which VEGF sequences were enriched in immunoprecipitates from cells transfected with a construct encoding a ZFP. […] Furthermore, sequences from an integrated reporter gene containing VEGF target sequences were enriched 170-fold by the VEGF 3a/1 protein and approximately 8-fold by the three-finger VEGF 1 protein.

[3] = biological target: BOS 3 fusion (NLS-ZFP-KRAB-FLAG) (synthetic construct); assay: ChIP anti-FLAG, MCF-7 cells, amplicon 230 bp upstream of site; conditions: tags: NLS, KRAB repression domain
Description: The sonicated lysate was centrifuged at 13,000 rpm for 10 min at 4° C., and the supernatant was recovered. 1.8 ml of ChIP buffer (16.7 mM Tris-Cl, pH 8.1, 1.2 mM EDTA, 167 mM NaCl, 1.1% Triton X-100, 0.01% SDS, 0.5 mM PMSF, 20 ug/ml aprotinin, 20 ug/ml pepstatin, 20 ug/ml leupeptin) was added to the cleared supernatant and 0.2 ml was removed as a pre-immunoprecipitation (pre-IP) input control. The input control sample was analyzed by agarose gel electrophoresis to verify that DNA fragments of 200-500 nucleotide pairs had been obtained.
The remainder of the sonicated lysate was pre-cleared by adding 0.1 ml of a 50% slurry of Protein A agarose beads (also containing salmon sperm DNA at 200 ug/ml), followed by gentle agitation for 90 min. The lysate was separated from the beads by centrifugation at 1,000 xg for 5 min at 4° C. The cleared lysate was divided into two equal portions. […]
Immune complexes were eluted from the beads by washing them twice with 0.25 ml of 1% SDS, 0.1 M NaHCO₃. […] The purified DNA was analyzed by real-time quantitative PCR, an assay known colloquially as “Taqman®.” The DNA was analyzed for the relative proportion of two sequences: (1) a region located 230 nucleotide pairs upstream of the BOS 3 binding site, and (2) a control sequence from the 18S rRNA gene.

[4] = biological target: T1, VEGF 1 ZFP (NLS-ZFP-VP16-FLAG); assay: ChIP anti-FLAG, 293 cells, GAPDH-normalized
Description: as §1, §2

[5] = biological target: T1, VEGF 1 ZFP (NLS-ZFP-VP16-FLAG); assay: cell_activity; 293 cells; VEGF protein 1.5; mRNA 2.7 and protein 3.1 in Table 9
From the text: Activation of the integrated luciferase reporter gene containing VEGF target sites and immunoprecipitation of reporter sequences by the VEGF 1 and VEGF 3a/1 proteins, as shown in examples 10 and 11, provided evidence that these exogenous ZFPs are binding to their target sites in cellular chromatin. To investigate this question further, the expression of the endogenous VEGF gene was examined in cells containing exogenous VEGF 1 and VEGF 3a/1 proteins. Accordingly, the same samples that were analyzed in Examples 10 and 11 were assayed for endogenous VEGF MRNA (by real-time PCR analysis using reverse transcriptase-mediated PCR) and for VEGF protein (by ELISA). […] The apparent activation of the endogenous VEGF gene by the GATA 15.5 ZFP is explained by the data obtained in Example 14, infra.
The production of mRNA and protein from the endogenous VEGF gene was assayed as described in Example 13, and the results are shown in Table 9. […] The activation of the endogenous VEGF gene by GATA 15.5 is consistent with the ability of this protein to immunoprecipitate endogenous VEGF sequences (Table 7).

Chain of BOS 3 fusion (NLS-ZFP-KRAB-FLAG) (synthetic construct) (chain, as listed by the source): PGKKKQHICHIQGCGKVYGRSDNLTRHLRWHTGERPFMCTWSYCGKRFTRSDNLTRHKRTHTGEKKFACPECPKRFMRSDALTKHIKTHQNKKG

B1: pGL-VFR integrated reporter, VEGF 3a/1 target (four tandem copies) (dsDNA)
DNA 1: GGGGAGGATCGCGGAGGCTT
DNA 2: AAGCCTCCGCGATCCTCCCC
**Q.** Which results are given for B1?
**A.** activity [1]: 2.7 fold luciferase vs NVF; binding signal [2]: 10.7 fold enrichment vs NVF

B2: endogenous ER-alpha gene BOS 3 site, -2 kb hypersensitive region (dsDNA)
DNA 1: GGGGAGGAG
DNA 2: CTCCTCCCC
**Q.** With B2 as the binder, how does the binding signal [3] read?
**A.** ~20 fold enrichment vs cells without BOS3

B3: endogenous VEGF-A gene target at +1 accessible region (dsDNA)
DNA 1: GGGGAGGATCGCGGAGGCTT
DNA 2: AAGCCTCCGCGATCCTCCCC
**Q.** What does the source list for B3?
**A.** binding signal [4]: 4.1 fold enrichment vs NVF; activity [5]: 3.2 fold VEGF mRNA vs NVF

Reference: patent publication US20020064802, “Methods for binding an exogenous molecule to cellular chromatin” (published 2002)
